Drawing on patent US6391637, this text covers Ka for three molecules.

Assay [1] concerns the target T1, CD40/Fc fusion protein (human, UniProt P25942 21-193). Description: biosensor assay substantially as in Example 22 (CD40/Fc captured on the chip); Affinity Ka.
T1 sequence (P25942 21-193): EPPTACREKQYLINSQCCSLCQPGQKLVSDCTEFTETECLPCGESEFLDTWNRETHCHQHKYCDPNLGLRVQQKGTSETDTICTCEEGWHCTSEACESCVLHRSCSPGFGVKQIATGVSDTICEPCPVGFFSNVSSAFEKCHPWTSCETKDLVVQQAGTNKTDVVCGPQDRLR
In assay [2] the target is T1, CD40/Fc fusion protein. Briefly: BIAcore biosensor; CD40/Fc captured on the chip; first experiment; K1 (site 1). The procedure:
(§1) This example illustrates the binding affinities of several different CD40-L constructs. Affinity experiments were conducted by biospecific interaction analysis (BIA) using a biosensor, an instrument that combines a biological recognition mechanism with a sensing device or transducer. An exemplary biosensor is BIAcore™, from Pharmacia Biosensor AB (Uppsala, Sweden; see Fagerstam L.G., Techniques in Protein Chemistry II, ed. J. J. Villafranca, Acad. Press, NY, 1991). BIAcore™ uses the optical phenomenon surface plasmon resonance (Kretschmann and Raether, Z. Naturforschung, Teil. A 23:2135, 1968) to monitor the interaction of two biological molecules. Molecule pairs having affinity constants in the range 10^5 to 10^10 M^-1, and association rate constants in the range of 10^3 to 10^6 M^-1s^-1, are suitable for characterization with BIAcore™.
(§2) The biosensor chips were coated with goat anti-human IgG_1 Fc, which was used to bind CD40/Fc (prepared as described in Example 1) to the chip. The different constructs of CD40-L were then added at increasing concentrations; the chip was regenerated between the different constructs by the addition of sodium hydroxide. Two separate experiments were performed. […] The resultant data were analyzed to determine the affinity and association rate constants of the different CD40-L constructs. […]
In general terms: SPR reads the build-up and loss of mass on a sensor chip optically.

The target of assay [3] is T1, CD40/Fc fusion protein. Briefly: BIAcore biosensor; CD40/Fc captured on the chip; first experiment; K2 (site 2). Here is the method: as §1, §2
In assay [4] the target is T2, CD40/Fc fusion protein (human, UniProt P25942 21-193).
T2 construct: extracellular domain; also called sCD40/Fc; C40/Fc; not shown: remainder of the human IgG1 Fc region (hinge onwards), joined at a Bgl II site
Description: BIAcore biosensor; CD40/Fc captured on the chip; first experiment; K1 (site 1). Here is the method: as §1, §2
T2 sequence (P25942 21-193): as above

The target in assay [5] is T2, CD40/Fc fusion protein. Briefly: BIAcore biosensor; CD40/Fc captured on the chip; first experiment; K2 (site 2). The procedure:
as §1, §2

B1: CD40 ligand/zipper domain fusion protein mutant 194.W (ligand, not shown: a dimerising Fc or GST; small tags and cut ends)
chain: MQKGDQNPQIAAHVISEASSKTTSVLQWAEKGYYTMSNNLVTLENGKQLTVKRQGLYYIYAQVTFCSNREASSQAPFIASLWLKSPGRFERILLRAANTHSSAKPCGQQSIHLGGVFELQPGASVFVNVTDPSQVSHGTGFTSFGLLKL
B1 displayed a Ka in assay [1] of 1.8e+09 M⁻¹.

B2: dimeric murine CD40-L (Fc fusion, prepared substantially as in Example 14) (Fc fusion)
chain: DKVEEEVNLHEDFVFIKKLKRCNKGEGSLSLLNCEEMRRQFEDLVKDITLNKEEKKENSFEMQRGDEDPQIAAHVVSEANSNAASVLQWAKKGYYTMKSNLVMLENGKQLTVKREGLYYVYTQVTFCSNREPSSQRPFIVGLWLKPSSGSERILLKAANTHSSSQLCEQQSVHLGGVFELQAGASVFVNVTEASQVIHRVGFSSFGLLKL
Take B2: the Ka in assay [2] was 7e+09 M⁻¹; in assay [3], 4e+07 M⁻¹.

B3: CD40-L/FC2 soluble human CD40-L/Fc fusion protein (Fc fusion, not shown: a dimerising Fc or GST; small tags and cut ends)
chain: DKIEDERNLHEDFVFMKTIQRCNTGERSLSLLNCEEIKSQFEGFVKDIMLNKEETKKENSFEMQKGDQNPQIAAHVISEASSKTTSVLQWAEKGYYTMSNNLVTLENGKQLTVKRQGLYYIYAQVTFCSNREASSQAPFIASLCLKSPGRFERILLRAANTHSSAKPCGQQSIHLGGVFELQPGASVFVNVTDPSQVSHGTGFTSFGLLKL
notes: also called dimeric human CD40-L; Human Dimer
Turning to B3, the Ka turned out to be 1.6e+11 M⁻¹ in assay [4] and 7e+08 M⁻¹ in assay [5].
